This note sets out measurements from patent publication US20240254229A1 (Molecular Partners, published 2024).

For assay [1], the target named is T1, biotinylated extracellular domain of human CD33 (SEQ ID NO: 87), Fc and Avi tagged (human, UniProt P20138 18-259, biotinylated with BirA-GST (Avi tag)).
T1 construct: also called hCD33; human target hCD33
The experiment in a line: SPR (ProteOn XPR36), target on GLC chip.

Assay [2] concerns the target T2, biotinylated extracellular domain of human CD123 (SEQ ID NO: 88), Fc and Avi tagged (human, UniProt P26951 19-303, biotinylated with BirA-GST (Avi tag)).
T2 construct: also called hCD123
T2 sequence: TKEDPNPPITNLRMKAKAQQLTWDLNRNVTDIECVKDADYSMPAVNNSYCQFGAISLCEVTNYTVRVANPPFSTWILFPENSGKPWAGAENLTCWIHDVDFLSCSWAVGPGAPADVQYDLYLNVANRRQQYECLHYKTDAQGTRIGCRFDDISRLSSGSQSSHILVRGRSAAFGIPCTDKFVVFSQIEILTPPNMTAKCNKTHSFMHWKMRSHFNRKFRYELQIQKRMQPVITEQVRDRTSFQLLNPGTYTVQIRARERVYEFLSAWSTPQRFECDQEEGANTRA
The experiment in a line: SPR (ProteOn XPR36), target on GLC chip.

In assay [3] the target is T3, human serum albumin (human, UniProt P02768 25-609).
T3 construct: also called HSA; SA
Nature of the assay: SPR (ProteOn XPR36), target on GLC chip.

Assay [4] addresses T4, extracellular domain of human CD70 (SEQ ID NO: 89), hCD70-Fc-trimer, ACRO Biosystems (human, UniProt P32970 52-193, chemically biotinylated where the biotinylated form was used).
T4 construct: also called human CD70-Fc-trimer; Bio.CD70
T4 sequence: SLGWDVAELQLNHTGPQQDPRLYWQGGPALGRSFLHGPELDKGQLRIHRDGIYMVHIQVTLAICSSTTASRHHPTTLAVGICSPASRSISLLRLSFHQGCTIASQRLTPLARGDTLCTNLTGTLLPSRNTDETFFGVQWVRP
The experiment in a line: SPR (ProteOn XPR36), target on GLC chip, DARPin as analyte.

Assay [5] has as its target T4, extracellular domain of human CD70 (SEQ …). Nature of the assay: SPR (ProteOn XPR36), target on GLC chip.
For assay [6], the target named is T2, biotinylated extracellular domain of …. Nature of the assay: SPR (ProteOn XPR36), target on GLC chip, DARPin as analyte.
For assay [7], the target named is T5, human scCD3εγ (scCD3εγ_Avi-Bio) (human, biotin on the C-terminal Avi-tag (in vitro, BirA) where the biotinylated form was used).
T5 construct: Used for all SPR and HTRF results on human CD3; also called recombinant human CD3; human CD3
T5 chain: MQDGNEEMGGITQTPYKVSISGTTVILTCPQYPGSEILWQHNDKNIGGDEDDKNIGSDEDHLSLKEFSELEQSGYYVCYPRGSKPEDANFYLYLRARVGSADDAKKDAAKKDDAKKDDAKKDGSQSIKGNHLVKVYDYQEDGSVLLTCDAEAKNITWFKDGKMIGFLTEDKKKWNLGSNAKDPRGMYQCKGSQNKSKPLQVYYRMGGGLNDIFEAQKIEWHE
The experiment in a line: ribosome display selection, crude extract HTRF. In general terms: TR-FRET usually uses a lanthanide donor and a delayed reading to cut background.

The target in assay [8] is T1, biotinylated extracellular domain of …. The experiment in a line: crude extract HTRF, 12 nM biotinylated hCD33. The procedure: The extract of each lysed clone was applied as a 1:900 dilution (final concentration) in PBSTB (PBS supplemented with 0.1% Tween 20® and 0.2% (w/v) BSA, pH 7.4) together with 12 nM (final concentration) biotinylated hCD33, 1:200 (final concentration) of anti-strep-D2 HTRF antibody-FRET acceptor conjugate (Cisbio) and 1:200 (final concentration) of anti-6His-Tb antibody FRET donor conjugate (Cisbio) to a well of 384 well plate and incubated for 90 minutes at RT. The HTRF was read-out on a Tecan M1000 using a 340 nm excitation wavelength and a 665±10 nm emission filter. […] An amino acid sequence of a selected ankyrin repeat domain that specifically bind to hCD33 are provided in SEQ ID NO: 15.

Assay [9] deals with T6, biotinylated extracellular domains of human CD123 (uniprot ID 26951), Fc format (human, UniProt P26951 19-305, biotinylated).
T6 construct: extracellular domain
T6 sequence (looked up): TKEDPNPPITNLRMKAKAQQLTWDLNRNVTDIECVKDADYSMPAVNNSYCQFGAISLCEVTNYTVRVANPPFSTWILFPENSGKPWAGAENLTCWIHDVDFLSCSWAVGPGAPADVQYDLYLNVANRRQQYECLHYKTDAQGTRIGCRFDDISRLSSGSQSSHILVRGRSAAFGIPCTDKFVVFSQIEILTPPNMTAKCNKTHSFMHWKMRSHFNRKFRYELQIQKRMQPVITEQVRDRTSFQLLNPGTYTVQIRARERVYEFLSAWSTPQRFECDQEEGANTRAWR
The experiment in a line: ribosome display selection, crude extract HTRF.

Assay [10] addresses T7, hCD123 (recombinant, construct not stated) (human, UniProt P26951 19-305, limits assumed).
T7 construct: also called CD123 (Ligand 2)
T7 sequence (looked up): T6 sequence (looked up)
The experiment in a line: switchSENSE, hCD33 and hCD123 co-immobilised 2:1; panel headed CD123, y axis kon. The procedure:
(§1) The designed ankyrin repeat proteins: DARPin® protein #20, DARPin® protein #21, DARPin® protein #22, DARPin® protein #27, DARPin® protein #40 and DARPin® protein #41 were tested in a concentration of 0.16 and 64 nM (in a buffer PE140 containing 10 mM Na2HPO4/NaH2PO4, 140 mM NaCl, 0.05% Tween20, 50 μM EDTA, 50 μM EGTA) for binding against two ligands hCD33 and hCD123, which both were immobilized simultaneously to DNA nanolevers, on the surface, at a pre-defined ratio (2:1, CD33:CD123) and 10% density (100:50) on an ADP-48-1-0 chip, where 100% density 1000 receptors/μm2 (preincubated R1-B48-CD123 and G1-A48-CD33 (100 nM) diluted in cNL-48 (dark)). Briefly the following steps were performed: [0724] Conjugation. Amine coupling of the two ligands (CD33 and CD123) to the DNA nanolever (A48, B48, respectively) and purification of the conjugates using the proFIRE® solution (Dynamic Biosensors GmbH) at 25° C. [0725] Evaluation of all the combined affinity and avidity of all different proteins to both ligands attached on the surface of an ADP chip using a DRX+ instrument (dynamic BIOSENSORS). [0726] Statistical analysis (repeatability from 2 to 5 times) including regeneration of the chip surface every concentration analyzed and long dissociation times and data were fitted using a bi-exponential global fit.

The target in assay [11] is T8, hCD33 (recombinant, construct not stated) (human, UniProt P20138 18-259, limits assumed).
T8 construct: also called CD33 (Ligand 1)
Nature of the assay: switchSENSE, hCD33 and hCD123 co-immobilised 2:1; panel headed CD33, column KD1; KD2 printed N.A. The protocol:
as §1

The target of assay [12] is T8, hCD33 (recombinant, construct not …). The experiment in a line: switchSENSE, CD33 and CD123 on one chip; monophasic. The procedure:
as §1

Assay [13] has the same target. The experiment in a line: switchSENSE, hCD33 and hCD123 co-immobilised 2:1; panel headed CD33. The protocol:
as §1

Assay [14] concerns the target T7, hCD123 (recombinant, construct not …). Nature of the assay: switchSENSE, hCD33 and hCD123 co-immobilised 2:1; panel headed CD123, column KD1; KD2 printed N.A. The procedure:
as §1

Assay [15] shares this target. Nature of the assay: switchSENSE, CD33 and CD123 on one chip; monophasic. The procedure:
as §1

T1 sequence (P20138 18-259 R69G): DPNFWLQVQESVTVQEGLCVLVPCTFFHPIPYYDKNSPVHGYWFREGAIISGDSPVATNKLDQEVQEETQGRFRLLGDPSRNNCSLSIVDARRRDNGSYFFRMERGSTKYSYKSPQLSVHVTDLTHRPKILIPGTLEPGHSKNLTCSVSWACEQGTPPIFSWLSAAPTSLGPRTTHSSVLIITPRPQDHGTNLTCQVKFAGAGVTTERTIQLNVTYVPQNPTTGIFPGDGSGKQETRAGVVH
T8 sequence (P20138 18-259 limits assumed): as the sequence (P20138 18-259 R69G) above, with G52R counted along it
T3 sequence (P02768 25-609 limits assumed): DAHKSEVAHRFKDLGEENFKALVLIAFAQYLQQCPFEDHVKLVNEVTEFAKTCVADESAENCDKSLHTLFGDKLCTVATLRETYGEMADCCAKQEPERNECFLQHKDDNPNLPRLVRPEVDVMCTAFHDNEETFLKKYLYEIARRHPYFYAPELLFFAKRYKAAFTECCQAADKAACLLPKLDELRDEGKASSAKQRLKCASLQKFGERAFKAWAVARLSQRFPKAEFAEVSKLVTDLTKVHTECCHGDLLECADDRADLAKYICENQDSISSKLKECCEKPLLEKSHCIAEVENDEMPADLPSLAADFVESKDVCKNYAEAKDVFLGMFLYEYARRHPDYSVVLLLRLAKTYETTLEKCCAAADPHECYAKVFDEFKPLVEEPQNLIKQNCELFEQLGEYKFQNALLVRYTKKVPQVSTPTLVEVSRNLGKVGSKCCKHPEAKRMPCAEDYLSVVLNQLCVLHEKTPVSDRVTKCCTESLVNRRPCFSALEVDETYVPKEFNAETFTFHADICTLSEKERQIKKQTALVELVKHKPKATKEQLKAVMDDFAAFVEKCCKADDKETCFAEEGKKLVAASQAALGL

B1: DARPin® protein #33 (designed binder)
chain: DLGYKLLQAAYDGQLDEVRILLKAGADVNAKDSRGQTPLHYAASIGHLEIVEVLLKAGADVNAKDDHGWTPLHLAAWSGHLEIVEVLLKAGADVNAQDQEGTTPADLAAVQGHQDIAEVLQKAA
notes: CD70-specific ankyrin repeat domain; not shown: N-terminal His-tag
Usually Kd stands for the free concentration of one partner at which half of the binding sites on the other are occupied at equilibrium, for simple one-to-one binding. Consider B1, for which the binding result in assay [1], in assay [2] and in assay [3] was “no binding (tested: 100 nM (highest concentration))” in each case. The molecule also registered a dissociation constant (Kd) in [4] of 0.18 nM.

B2: DARPin® protein #34 (designed binder)
chain: DLGKKLLEAALEGQLDEVRELLKAGADVNAKDQEGYTPLHLAAALGHLEIVEVLLKAGADVNAKDSIGRTPLHLAAYKGHLEIVEVLLKAGADVNAQDLLGETPADLAAEQGHQDIAEVLQKAA
notes: CD123-specific ankyrin repeat domain; not shown: N-terminal His-tag
As to B2, the binding result in assay [5], in assay [1] and in assay [3] was “no binding (tested: 100 nM (highest concentration))” each time. In [6], this molecule returned a Kd of 8.6 nM.

B3: DARPin® protein #2 (designed binder)
chain: MRGSHHHHHHDLGQKLLEAAWAGQDDEVRELLKAGADVNAKNSRGWTPLHTAAQTGHLEIFEVLLKAGADVNAKDDKGVTPLHLAAALGHLEIVEVLLKAGADVNAQDSWGTTPADLAAKYGHEDIAEVLQKAA
notes: CD3-specific ankyrin repeat domain
Take B3: the binding result in assay [7] is given as “binds”.

B4: DARPin® protein #15 (designed binder)
chain: DLGDKLLLAATSGQDDEVRILLAAGADVNAKDYDGDTPLHLAADEGHLEIVEVLLKAGADVNAKDYSGSTPLHAAAAYGHLEIVEVLLKAGADVNAQDVFGYTPADLAAYVGHEDIAEVLQKAA
notes: CD33-specific domain; screened as crude extract of a His-tagged clone (vector pMPAG06)
Regarding B4, the binding result in assay [8] was “binds”.

B5: DARPin® protein #6 (designed binder)
chain: DLGKKLLEAARAGQDDEVRILMANGADVNALDWLGHTPLHLAAYEGHLEIVEVLLKNGADVNAIDDNNGFTPLHLAAIDGHLEIVEVLLKNGADVNAQDKFGKTAFDISIDNGNEDLAEILQKAA
notes: CD123-specific domain
As to B5, in [9], the binding result is reported as “binds”.

B6: DARPin® protein #22 (designed binder)
chain: DLGKKLLEAARAGQDDEVRELLKAGADVNAKDKDGYTPLHLAAREGHLEIVEVLLKAGADVNAKDKDGYTPLHLAAREGHLEIVEVLLKAGADVNAQDKSGKTPADLAADAGHEDIAEVLQKAAGSPTPTPTTPTPTPTTPTPTPTGSDLGDKLLLAATSGQDDEVRILLAAGADVNAKDYDGDTPLHLAADEGHLEIVEVLLKAGADVNAKDYSGSTPLHAAAAYGHLEIVEVLLKAGADVNAQDVFGYTPADLAAYVGHEDIAEVLQKAAGSPTPTPTTPTPTPTTPTPTPTGSDLGQKLLEAAWAGQDDEVRILLAAGADVNAKNSRGWTPLHTAAQTGHLEIFEVLLKAGADVNAKNDKRVTPLHLAAALGHLEIVEVLLKAGADVNARDSWGTTPADLAAKYGHGDIAEVLQKLA
notes: also called Ni2C-αCD33-αCD3
A word on the koff: it is the first-order rate constant of dissociation. As for B6, the binding result in [10] is reported as “no binding”. In assay [11], the Kd stood at 15 nM. The koff in assay [12] was 0.01 s⁻¹.

B7: DARPin® protein #21 (designed binder)
chain: DLGKKLLEAARAGQDDEVRILMANGADVNALDWLGHTPLHLAAYEGHLEIVEVLLKNGADVNAIDDNNGFTPLHLAAIDGHLEIVEVLLKNGADVNAQDKFGKTAFDISIDNGNEDLAEILQKAAGSPTPTPTTPTPTPTTPTPTPTGSDLGKKLLEAARAGQDDEVRELLKAGADVNAKDKDGYTPLHLAAREGHLEIVEVLLKAGADVNAKDKDGYTPLHLAAREGHLEIVEVLLKAGADVNAQDKSGKTPADLAADAGHEDIAEVLQKAAGSPTPTPTTPTPTPTTPTPTPTGSDLGQKLLEAAWAGQDDEVRILLAAGADVNAKNSRGWTPLHTAAQTGHLEIFEVLLKAGADVNAKNDKRVTPLHLAAALGHLEIVEVLLKAGADVNARDSWGTTPADLAAKYGHGDIAEVLQKLA
notes: also called αCD123-Ni2C-αCD3
Regarding B7, the binding result in assay [13] was “no binding”. Besides, the Kd in assay [14] was 2.2 nM. Also, the koff in assay [15] turned out to be 0.06 s⁻¹.
